Test results from PMC10669680.

Molecular target: HIV-1 reverse transcriptase p51 (isolated polymerase domain) with the C38V/C280S/M357T substitutions, no affinity tag (HIV-1)
Experiment: SEC; Superdex 200 Increase 5/150, SEC buffer 50 mM Bis-Tris, 1 M NaCl, 1 mM CDTA, pH 6.5; samples 80% SEC buffer, 20% glycerol; [NaCl] varied 0.15-1.0 M and [p51] varied 10-80 µM; monomer to dimer

“HIV-1 reverse transcriptase p51 (isolated polymerase domain) with the C38V/C280S/M357T substitutions, no affinity tag (domain or fragment)” gave a stoichiometry N of 2.
